“And” between values parts separate entries of the source, which are not always exact repeats. Identical values can stand only once. Starred links: 1 amine or outer side, 2 acyl side, 3 side chain; linkers in the order of their positions; H or OH if unused. Positions of bridges follow the written chain, without caps; N, C: chain ends. Non-standard residues stand in square brackets, D forms with d. PyrS2 = (S)-3-amino-1-((pent-4-en-1-yloxy)carbonyl)pyrrolidine-3-carboxylic acid, C=CCCCOC(=O)N1CC[C@@](N[*:1])(C(=O)[*:2])C1; B5 = 2-amino-2-(pent-4-en-1-yl)hept-6-enoic acid, C=CCCCC(CCCC=C)(N[*:1])C(=O)[*:2]; Bta = N[C@@H](Cc1csc2ccccc12)C(=O)O; αAllylPro = C=CC[C@@]1(C(=O)O)CCCN1; tBuAla = CC(C)(C)C[C@H](N)C(=O)O; 3Thi = N[C@@H](Cc1ccsc1)C(=O)O
Experiments:
[1] = biological target: beta-catenin-Halo NanoBRET construct (Homo sapiens (Human)) (UniProt P35222); assay: NanoBRET, Bcat-Halo/TCF4-Luc in HEK293 cells; peptide 5 uM; replicate 3; competitor TCF4-Luc
[2] = biological target: beta-catenin-Halo (NanoBRET construct expressed in HEK293 cells) (Homo sapiens (Human)) (UniProt P35222); assay: NanoBRET, HEK293 cells with Bcat-Halo and TCF4-Luc; plate row B (20 uM by plate map), plate column 6
[3] = biological target: beta-catenin-Halo NanoBRET construct (Homo sapiens (Human)) (UniProt P35222); assay: NanoBRET, Bcat-Halo/TCF4-Luc in HEK293 cells; peptide 20 uM; replicate 2; competitor TCF4-Luc
[4] = biological target: beta-catenin-Halo NanoBRET construct (Homo sapiens (Human)) (UniProt P35222); assay: NanoBRET, Bcat-Halo/TCF4-Luc in HEK293 cells; peptide 0.625 uM; replicate 3; competitor TCF4-Luc
[5] = biological target: beta-catenin-Halo NanoBRET construct (Homo sapiens (Human)) (UniProt P35222); assay: NanoBRET, Bcat-Halo/TCF4-Luc in HEK293 cells; peptide 10 uM; replicate 3; competitor TCF4-Luc
[6] = biological target: beta-catenin-Halo NanoBRET construct (Homo sapiens (Human)) (UniProt P35222); assay: NanoBRET, Bcat-Halo/TCF4-Luc in HEK293 cells; peptide 20 uM; replicate 1; competitor TCF4-Luc
[7] = biological target: beta-catenin-Halo NanoBRET construct (Homo sapiens (Human)) (UniProt P35222); assay: NanoBRET, Bcat-Halo/TCF4-Luc in HEK293 cells; peptide 1.25 uM; replicate 1; competitor TCF4-Luc
[8] = biological target: beta-catenin-Halo (NanoBRET construct expressed in HEK293 cells) (Homo sapiens (Human)) (UniProt P35222); assay: NanoBRET, HEK293 cells with Bcat-Halo and TCF4-Luc; plate row F (1.25 uM by plate map), plate column 7
[9] = biological target: beta-catenin-Halo NanoBRET construct (Homo sapiens (Human)) (UniProt P35222); assay: NanoBRET, Bcat-Halo/TCF4-Luc in HEK293 cells; peptide 0.625 uM; replicate 2; competitor TCF4-Luc
[10] = biological target: beta-catenin-Halo (NanoBRET construct expressed in HEK293 cells) (Homo sapiens (Human)) (UniProt P35222); assay: NanoBRET, HEK293 cells with Bcat-Halo and TCF4-Luc; plate row G (0.625 uM by plate map), plate column 7
[11] = biological target: beta-catenin-Halo (NanoBRET construct expressed in HEK293 cells) (Homo sapiens (Human)) (UniProt P35222); assay: NanoBRET, HEK293 cells with Bcat-Halo and TCF4-Luc; plate row G (0.625 uM by plate map), plate column 5
[12] = biological target: beta-catenin-Halo (NanoBRET construct expressed in HEK293 cells) (Homo sapiens (Human)) (UniProt P35222); assay: NanoBRET, HEK293 cells with Bcat-Halo and TCF4-Luc; plate row G (0.625 uM by plate map), plate column 6
[13] = biological target: beta-catenin-Halo NanoBRET construct (Homo sapiens (Human)) (UniProt P35222); assay: NanoBRET, Bcat-Halo/TCF4-Luc in HEK293 cells; peptide 5 uM; replicate 2; competitor TCF4-Luc
[14] = biological target: beta-catenin-Halo NanoBRET construct (Homo sapiens (Human)) (UniProt P35222); assay: NanoBRET, Bcat-Halo/TCF4-Luc in HEK293 cells; peptide 0.625 uM; replicate 1; competitor TCF4-Luc
[15] = biological target: beta-catenin-Halo NanoBRET construct (Homo sapiens (Human)) (UniProt P35222); assay: NanoBRET raw acceptor reading, Bcat-Halo/TCF4-Luc in HEK293 cells; plate row G (0.625 uM by plate map); competitor TCF4-Luc
[16] = biological target: beta-catenin-Halo NanoBRET construct (Homo sapiens (Human)) (UniProt P35222); assay: NanoBRET, Bcat-Halo/TCF4-Luc in HEK293 cells; peptide 2.5 uM; replicate 1; competitor TCF4-Luc
[17] = biological target: beta-catenin-Halo NanoBRET construct (Homo sapiens (Human)) (UniProt P35222); assay: NanoBRET, Bcat-Halo/TCF4-Luc in HEK293 cells; peptide 1.25 uM; replicate 3; competitor TCF4-Luc
[18] = biological target: beta-catenin-Halo (NanoBRET construct expressed in HEK293 cells) (Homo sapiens (Human)) (UniProt P35222); assay: NanoBRET, HEK293 cells with Bcat-Halo and TCF4-Luc; plate row B (20 uM by plate map), plate column 5
[19] = biological target: beta-catenin-Halo (NanoBRET construct expressed in HEK293 cells) (Homo sapiens (Human)) (UniProt P35222); assay: NanoBRET, HEK293 cells with Bcat-Halo and TCF4-Luc; plate row C (10 uM by plate map), plate column 7

Sequence of beta-catenin-Halo (NanoBRET construct expressed in HEK293 cells) (Homo sapiens (Human)) (P35222 whole entry): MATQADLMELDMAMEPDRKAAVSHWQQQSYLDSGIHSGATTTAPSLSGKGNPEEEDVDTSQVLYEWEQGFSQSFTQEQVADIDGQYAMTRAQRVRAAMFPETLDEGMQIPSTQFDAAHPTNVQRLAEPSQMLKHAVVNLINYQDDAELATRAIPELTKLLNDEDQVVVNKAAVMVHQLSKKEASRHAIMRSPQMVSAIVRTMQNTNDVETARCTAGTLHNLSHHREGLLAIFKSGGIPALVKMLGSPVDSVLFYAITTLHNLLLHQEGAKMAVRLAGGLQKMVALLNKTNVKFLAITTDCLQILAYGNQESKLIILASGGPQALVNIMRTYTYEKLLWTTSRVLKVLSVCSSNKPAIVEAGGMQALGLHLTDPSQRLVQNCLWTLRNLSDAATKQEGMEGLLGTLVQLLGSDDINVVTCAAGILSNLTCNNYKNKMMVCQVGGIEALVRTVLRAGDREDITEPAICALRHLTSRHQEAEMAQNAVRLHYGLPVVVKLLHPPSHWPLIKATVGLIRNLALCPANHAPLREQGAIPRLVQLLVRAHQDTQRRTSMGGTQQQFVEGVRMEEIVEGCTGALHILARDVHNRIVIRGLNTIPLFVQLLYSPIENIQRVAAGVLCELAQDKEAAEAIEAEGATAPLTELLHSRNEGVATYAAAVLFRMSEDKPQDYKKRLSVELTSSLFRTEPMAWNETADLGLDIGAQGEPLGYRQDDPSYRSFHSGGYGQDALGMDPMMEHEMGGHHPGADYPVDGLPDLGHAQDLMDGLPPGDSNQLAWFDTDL
Sequence of beta-catenin-Halo NanoBRET construct (Homo sapiens (Human)) (P35222 whole entry): as above

With Ac-[αAllylPro]F[tBuAla][B5]DDAADN[PyrS2][3Thi][Bta]Q-NH2 (staple 1-4, 4-11) [I-797] the % Inhibition [1] was -18.6%, the NanoBRET donor emission 450 BP (raw reading) [2] was 55900 and the % Inhibition [3] was -0.3%. For the same binder, the % Inhibition [4] was 8.3%, the % Inhibition [5] was 1.7% and the % Inhibition [6] was -36.7%. It also gave a % Inhibition [7] of -24.8%, a NanoBRET donor emission 450 BP (raw reading) [8] of 71100 and a % Inhibition [9] of -6.9%. For the same binder, the NanoBRET donor emission 450 BP (raw reading) [10] was 47600, the NanoBRET donor emission 450 BP (raw reading) [11] was 25200 and the NanoBRET donor emission 450 BP (raw reading) [12] was 35700. The % Inhibition [13] was -28.4%, the % Inhibition [14] was -56.5% and the Acceptor 600 LP emission [15] was 410 and 440 and 530. The % Inhibition [16] was -21.3%, the % Inhibition [17] was -4% and the NanoBRET donor emission 450 BP (raw reading) [18] was 58500. It also gave a NanoBRET donor emission 450 BP (raw reading) [19] of 40400.
